Assay results as given in the DeepSol protein solubility set.

Assay: soluble on expression in E. coli; label from the status in PepcDB or PDB records

| Sequence | soluble on expression in E. coli |
| --- | --- |
| MGSDKIHHHHHHMDAMKYNDLRDFLTLLEQQGELKRITLPVDPHLEITEIADRTLRAGGPALLFENPKGYSMPVLCNLFGTPKRVAMGMGQEDVSALREVGKLLAFLKEPEPPKGFRDLFDKLPQFKQVLNMPTKRLRGAPCQQKIVSGDDVDLNRIPIMTCWPEDAAPLITWGLTVTRGPHKERQNLGIYRQQLIGKNKLIMRWLSHRGGALDYQEWCAAHPGERFPVSVALGADPATILGAVTPVPDTLSEYAFAGLLRGTKTEVVKCISNDLEVPASAEIVLEGYIEQGETAPEGPYGDHTGYYNEVDSFPVFTVTHITQREDAIYHSTYTGRPPDEPAVLGVALNEVFVPILQKQFPEIVDFYLPPEGCSYRLAVVTIKKQYAGHAKRVMMGVWSFLRQFMYTKFVIVCDDDVNARDWNDVIWAITTRMDPARDTVLVENTPIDYLDFASPVSGLGSKMGLDATNKWPGETQREWGRPIKKDPDVVAHIDAIWDELAIFNNGKSA | not soluble |
| MDPELLRQRTAFQKHAATTMAVQNKPTTAPNSHTTYSSEAAKAKKKKSSGPAQNLSKLPDFNNSVSNANALSNATNFSTMAKIVDYMKKRHLNNQQWPLTLQEILDELQIFDLSKRSLAFLQEALPNNPRLIMESEKFAFRPPYKIKGKTSLVAVARKHYQDGKGGILVSDLAECVANYDALLQQVSSEVIVVPTQVNKKKDRVVFYNDKEFTFPELEDDFKALWRHVSVDHLDEKKIEEYLQKKGLDAMKDLTPKVRMQAPLKRKAAKRRFNQKVQNEHMDGVLEDYE | soluble |
| MSLTPLPYECQKCVLQFFEANRRFKLVERCDSLKAADKAAPLHIYKLYMNPRVIRINRHRYTLGLLRHLPKDHVYYSPYINNVNLDGGAAYDMDQYGLKDPRCNEVLSPGDLKVESKEKINNMEDMTMEMLQFAMRDFIRPQGRMQVQQREDPESSSEDDEDEAEDLPAEGSDDEDDDPQEAQIRRILGDAYLPRARYSSSESEASESEDEPDIDPAVTDQLEAYTNPYSWREENEPAPYRFGIRFQRMNLDFRRDRETFHGIIEYLDYNKKMYDAMKYITEKLFGKRAHPIVIKTLELGDAGGVYRLPENFKVKVSNMRFGTEFGLLWDGLNSIFHESTLPFKSLHMPLEHDHPVIHATQRLVIGTEKMFGENFAWIPFLLKLPQKNVYMLHSPLFHHDYVQLIDNWIETPKSIGTCFTFGVKQYHATQSTLNLLGDHPMVVSKRMEGVDCTEFPHCFNIPLTYESELNVYGKKRTENLDPLEFMPHVSWCLVFEVMPIGSALPLED | not soluble |
| MSQFGGGKPPGQWHRPAAPGGAPQLSGFSAVNFGGVPMVGMGVPMGMVNQAAFSSQGVLGMQGIMGAVPQQSLPQQQPNFQQQNSLQQGTNMQQNSGAKNQRTFVGVVTKMLDTYGFVDDDVFFQHSVIRGSHPRVGDKVMVEANYNPSMPFKWNAYRIQLLNAATQQEPARQAPQQQQMHQPQRGGQESQRWGAAPASGTSDRADRNGGARGNDSPLHRSSAARRHSPPPRRASPPRRTSSPKRDARPAREIRDSREPREVRRSPPPRRAASPRKASSPSAPAKNDRKRERSPSGSVAPSVRRESASPPRRRARIIPRYECRAQKPALLSPIVSGSVLRHRYSKLYLPSDYVDLSFDWVRSFQLDLSLDLSNPIQFHVFNKDVDFIGEEEIQDLDPEDADHRHQVKVLLLSHAGKSEVVKKAFCLMADGTTDDHQEPQSLLKNLHFLVGARGKETMGIGGSWSPSQDGADPNSATTMIRTAVRTTKSLTGIDLSSVSQWFSMVQIRYYRADKQRIDHVNYLLPDTQSLALDDAQWMLAETKIAEQLKAKLANVDALKIEEDEPPVVMMVEESESVVAAAAAAADVVPEQSIPDVKKEEELQAEEPKVLDNVKESIVLLWAEESDVVADVSMNSTTDADNSEAPAAENGQGPTNWSNLDPKSMKVAELRVELELRGLETKGIKTLLVQRLQTALDTEKAAEASVAARDVEMRDAAENAVKQEGGEENPAAFIAPSIEETKAKTEAEAKKEAEEAEKRKKKEEQLEKEKKEKREALEKHYQLPKDKKILVFPSKSFKSGKFDCKVLSLSSLLDYRHDDNKENQFEVSLFAEAFKEMIERNAAFTIYETLANCGDRDAEKKRRDEAREKPVEPKEPKEPAETTEKAAEGEEKKDEKEEKRDEKKDEKREEKREKVERIDLKSVVANRTVYEAFSLFDSNLCGYLTEKDIEEILYNGEFGISRGQIQKLAKKLSVRDKINYRHLTDVLTDMDGNVRHTPGGADDVVETDDLIRGFGYNLAKSMEPADSGAAVKSSEVSASSDGVVIINGSAVNVVQKMKLLKQVEKERDEAKSTVSEQLSLIEQLREAKAEIDKKKKDIDSHYHKSNKKLNETSAQLKSTQDENSALKQALQDCKRHADRIFSVVEKVMPPPPKKEEKSKKDEKEKTDKKDDKVSEKSAEKSTEEPSQEVPASAEQAAEPSTEAEPIVIDESEDKDAEVVEESKE | not soluble |
| MGLDKGKQQTAKKPGFNCKPFEFEISSTKFQIPNDKPLKYTLKCTADEKQDVIIQVHSVFFEIVGARRKHGVTSQEFHVLGKNEEMTFEIGLKDLTNVSYDNFEHAQLASAAGFITFTHYKSSRDDDSDASWGPNKNLLIVITDGMEEVGFWKKKLSVETETDEMKKVKEEFGVKLEGEKKYEEIDKMEMDRMRKEIGKNQSARDDGFAPIKDMHKKYLKEKYECVIS | soluble |
| MTAALHIGHLSKSFQNTPVLNDISLSLDPGEILFIIGASGCGKTTLLRCLAGFEQPDSGEISLSGKTIFSKNTNLPVRERRLGYLVQEGVLFPHLTVYRNIAYGLGNGKGRTAQERQRIEAMLELTGISELAGRYPHELSGGQQQRAALARALAPDPELILLDEPFSALDEQLRRQIREDMIAALRANGKSAVFVSHDREEALQYADRIAVMKQGRILQTASPHELYRQPADLDAALFIGEGIVFPAALNADGTADCRLGRLPVQSGAPAGTRGTLLIRPEQYSLHPHSAPAASIHAVVLKTTPKARHTEISLRAGQTVLTLNLPSAPTLSDGISAVLHLDGPALFFPGNTLEHHHHHH | soluble |
| GSHEHPEFLKAGKEPGLQIWRVEKFDLVPVPTNLYGDFFTGDAYVILKTVQLRNGNLQYDLHYWLGNECSQDESGAAAIFTVQLDDYLNGRAVQHREVQGFESATFLGYFKSGLKYKKGGVASGFKHVETQEKNPLPSKETIEQEKQ | soluble |
| GMDVEIVEELSKMLAGRKAVTEEEIRRKAIRCALKIMGARLVGIDAELIEDVTCSLIDCPITLKSLHFSEKVKIGDVLFYHPHVIKPEKEDFEQAYFEYKQSKKFLDAFDIMREVTDRFFEGYEAEGRYMRKYTKDGRNYYAFFSTIDDTFEDVDIHLRMVDEVDGDYVVIVPTENELNPFLKFFKQYSEDAKRAGLKIWVVNPDEKTIDPFIGYPKDFRLLKGFKNPKAAALVSAYWRVTVTDLD | soluble |
| MNPDLRKERASATFNPELITHILDGSPENTRRRREIENLILNDPDFQHEDYNFLTRSQRYEVAVKKSATMVKKMREYGISDPEEIMWFKNSVHRGHPEPLDLHLGMFLPTLLHQATAEQQERFFMPAWNLEITGTYAQTEMGHGTHLRGLETTATYDPKTQEFILNSPTVTSIKWWPGGLGKTSNHAIVLAQLITQGECYGLHAFVVPIREIGTHKPLPGITVGDIGPKFGYEEMDNGYLKMDNYRIPRENMLMKYAQVKPDGTYVKPLSNKLTYGTMVFVRSFLVGNAAQSLSKACTIAIRYSAVRRQSEIKQSEPEPQILDFQTQQYKLFPLLATAYAFHFVGRYMKETYLRINESIGQGDLSELPELHALTAGLKAFTTWTANAGIEECRMACGGHGYSHSSGIPNIYVTFTPACTFEGENTVMMLQTARFLMKIYDQVRSGKLVGGMVSYLNDLPSQRIQPQQVAVWPTMVDINSLEGLTEAYKLRAARLVEIAAKNLQTHVSHRKSKEVAWNLTSVDLVRASEAHCHYVVVKVFSDKLPKIQDKAVQAVLRNLCLLYSLYGISQKGGDFLEGSIITGAQLSQVNARILELLTLIRPNAVALVDAFDFKDMTLGSVLGRYDGNVYENLFEWAKKSPLNKTEVHESYHKHLKPLQSKL | soluble |
| MGSDKIHHHHHHAYFFNVAFVPGQKSVLNKYSSKKKKDPFAQNKKWYADAKKEQWYIKSASSNYCLDANYIPKKNSHKTAVLLHGFMNNKDTMAPYAAMFHQLGYNVLIPDARAHGKSQGKYIGYGWPEKYDVQKWVKKDIAEKGKKQKIVIFGVSMGGATTMMTSGLKMPKQVKAYIEDCGYTDVKSEFLYEAKDIYKMPKLVASSAVAILSGVSKANLGFYLGDASAVNQLKKNKLPMMFIHGSKDNFVPTKMVYQNYKATNGPKELWIAEKAAHARSFETYPREYKARVSKFLNKYV | not soluble |
